{"source": "patent US20210077592A1", "about": "“COMPOSITION TO PREVENT INTESTINAL DAMAGE” (FUSION FARM S.R.L. SEMPLIFICATA, priority 2017, published 2021)", "molecules": {"B1": {"name": "lactoferrin (protein, UniProt P02788 20-710, looked up)", "Lactotransferrin": "GRRRSVQWCAVSQPEATKCFQWQRNMRKVRGPPVSCIKRDSPIQCIQAIAENRADAVTLDGGFIYEAGLAPYKLRPVAAEVYGTERQPRTHYYAVAVVKKGGSFQLNELQGLKSCHTGLRRTAGWNVPIGTLRPFLNWTGPPEPIEAAVARFFSASCVPGADKGQFPNLCRLCAGTGENKCAFSSQEPYFSYSGAFKCLRDGAGDVAFIRESTVFEDLSDEAERDEYELLCPDNTRKPVDKFKDCHLARVPSHAVVARSVNGKEDAIWNLLRQAQEKFGKDKSPKFQLFGSPSGQKDLLFKDSAIGFSRVPPRIDSGLYLGSGYFTAIQNLRKSEEEVAARRARVVWCAVGEQELRKCNQWSGLSEGSVTCSSASTTEDCIALVLKGEADAMSLDGGYVYTAGKCGLVPVLAENYKSQQSSDPDPNCVDRPVEGYLAVAVVRRSDTSLTWNSVKGKKSCHTAVDRTAGWNIPMGLLFNQTGSCKFDEYFSQSCAPGSDPRSNLCALCIGDEQGENKCVPNSNERYYGYTGAFRCLAENAGDVAFVKDVTVLQNTDGNNNEAWAKDLKLADFALLCLDGKRKPVTEARSCHLAMAPNHAVVSRMDKVERLKQVLLHQQAKFGRNGSDCPDKFCLFQSETKNLLFNDNTECLARLHGKTTYEKYLGPQYVAGITNLKKCSTSPLLEACEFLRK", "notes": "antimicrobial and iron-carrying glycoprotein; B=400 μg/ml lactoferrin"}}, "key": {"[1]": {"test_system": "Caco-2 cells", "experiment": "Electron Microscopy (SEM) of microvilli of Caco-2 cells after damage induction", "assay_type": "cell-based", "conditions": "pretreatment 60 h without glutamine, then 60 mM ethanol 4 h, 750x-10000x", "experimental": "The same cells without damage induction (NC) and with damage induction (PC), as indicated above, were finally evaluated by Electron Microscopy (SEM) at different magnifications.\n(§1) According to the experimental protocol, to evaluate the efficacy of the composition of the invention in damage prevention, sodium butyrate (2 mM concentration) and lactoferrin (400 μg/ml concentration), either alone or in combination, were applied on Caco-2 cells during stress induced by absence of glutamine, increasing the time of said deprivation, with respect to the conditions tested during the development of the model, and therefore of stress induction, to 60 hours, to make more evident differences in cells behavior in the different treatment situations. At the end of 60 hours, the products were removed, and damage was induced for 4 h with 60 mM ethanol. The parameters were evaluated at the end.\nThe same cells were finally evaluated also by Electron Microscopy SEM, at various magnifications."}, "[2]": {"experiment": "Solubility of lactoferrin in aqueous solution in the presence of sodium butyrate", "assay_type": "physicochemical", "conditions": "with or without added sodium butyrate", "experimental": "Various solutions, with increasing ratios between sodium butyrate amount and lactoferrin amount, were prepared to verify the possible effect of sodium butyrate addition on lactoferrin solubility in aqueous solution.\nIn particular, ten different mixtures were prepared, whose weight rations are set out in the following Table 1, and the presence of undissolved body of lactoferrin was observed as a function of the increasing amount of sodium butyrate added to the solution."}, "[3]": {"test_system": "Occludin and Zonula Occludens in Caco-2 cells", "experiment": "Fluorescence immunolabeling of Occludin and Zonula Occludens in Caco-2 cells after damage induction", "assay_type": "cell-based", "conditions": "pretreatment 60 h without glutamine, then 60 mM ethanol 4 h", "experimental": "As it can be seen by FIG. 1, the damage induced an increase in permeability. The same cells without damage induction (NC) and with damage induction (PC), as indicated above, were further evaluated by fluorescence immunolabeling of Occludina and Zonula Occludens (proteins present in the intestinal membrane intracellular junctions).\nas §1\nTo confirm the observed behavior, an evaluation using fluorescence immunolabeling of Occludin and Zonula Occludens was also performed."}, "[4]": {"test_system": "Caco-2 cells", "experiment": "Lucifer Yellow (LY) assay of paracellular permeability in Caco-2 intestinal damage model", "assay_type": "cell-based", "experimental": "A protocol was developed based on Caco-2 cell inserts model (CACOREADY™ cells, lot no. 24 676 101716 and no. 24 680 111416, Readycell manufacturer) consisting in two steps:\n1. Induction of epithelial damage (40 h incubation in glutamine free medium followed by stress induced by 60 mM ethanol for 4 h)\n2. Evaluation of the single products first, and then applied in combination during stress induced by the absence of glutamine (60 h), and with subsequent stress induced by ethanol, to evaluate the efficacy in preventing damage. […]\nCells without damage induction (NC=without damage) and with damage induction (PC) were evaluated with the Lucifer Yellow (LY) assay, which verifies the integrity of the cellular junctions in presence of the test substance. […]\nas §1, with “At the end of 60 hours, the products were removed, and damage was induced for 4 h with 60 mM ethanol.” left out, “end. […]” for “end.”"}}}
{"molecule": "B1", "values": [{"measurement": "effect on microvilli / villous atrophy by SEM, result in words", "setting": "[1]", "result": "positive effect on the villi functionality"}, {"measurement": "dissolution of lactoferrin in aqueous solution, result in words", "setting": "[2]", "result": "completely undissolved body in suspension"}, {"measurement": "fluorescence intensity / expression of tight junction proteins (Occludin, Zonula Occludens), result in words", "setting": "[3]", "result": "good level of expression of the tight junctions' markers"}, {"measurement": "reduction in LY flux with respect to positive control (PC)", "setting": "[4]; product applied during 60 h glutamine deprivation, then 60 mM ethanol 4 h, 2 mM sodium butyrate and/or 400 μg/ml lactoferrin", "result": "about 12%"}, {"measurement": "permeability (LY), result in words", "setting": "[4]; treatment at the same time as damage induction", "result": "not substantially changed compared to the negative control"}]}
